How the values were obtained:
[1] = target: T1, human FcRn on HEK293 cells (human, UniProt P55899 24-365; P61769 21-119); assay: FACS competition on hFcRn HEK293 cells at pH 6.0; remaining binding of 100 nM Alexa488-labeled hIgG1 (m14) with 250 nM competitor antibody, percent of the tube without competitor
T1 construct: whole, on cells; also called hFcRn
Experimental: (§1) In stable HEK293 cells expressing human FcRn, the blocking of the antibody against FcRn was analyzed by FACS. The antibody was diluted in binding buffer (PBS pH 6.0, 10 mM EDTA) at concentrations of 2,000 nM, […] to make 50 μl of dilutions, which were dispensed into tubes. […] Stable HEK293 cells were diluted in binding buffer at a concentration of 2,500,000 cells/ml, and 40 μl of the cell dilution was added to each of the labeled antibody-containing tubes. Thus, a final volume of 100 μl contained 100,000 cells, 100 nM labeled antibody and 1000 nM, 500 nM or 250 nM competitor antibody. The cells were washed once with 150 μl of buffer (pH 6.0), and pellets were obtained therefrom and resuspended in 150 μl of buffer having pH difference. The suspension was transferred into a tube for FACS analysis. The cells were analyzed by FACS using BD FACSDiva™ v6.1.3 software (BD Bioscience). The results of the analysis were expressed as mean fluorescence intensity (MFI).
(§2) The MFI of the test group was processed after subtracting the MFI (background signal) measured in cells alone.

[2] = target: T1, human FcRn on HEK293 cells; assay: FACS on hFcRn-overexpressing HEK293 cells at pH 6.0, Alexa488 anti-human goat antibody; MFI relative to hIgG1
Experimental: (§3) In stable HEK293 cells expressing human FcRn, the degrees of binding of antibody to FcRn at various pHs were analyzed using a FACS system. Specifically, 100,000 stable HEK293 cells were washed with PBS and centrifuged in a table top microcentrifuge at 4500 rpm for 5 minutes to obtain pellets. 1 μg of antibody was added to 100 μl of pH 6.0 or pH 7.4PBS/10 mM EDTA. The cell pellets were resuspended in 100 μl of the antibody solution and incubated on ice for 60 minutes. The cells were washed once with 150 μl of buffer having pH difference, and then pellets were obtained therefrom. Alexa488-labeled anti-human antibody goat antibody (1 mg/ml) was diluted at 1:20 in buffer having pH difference, and the pellets were resuspended in 100 μl of the buffer, and then cultured on ice for 60 minutes. The cells were washed once with 150 μl of buffer having pH difference, and pellets were obtained therefrom and resuspended in buffer having pH difference. The suspension was transferred into a tube for FACS analysis. These cells were analyzed by FACS using BD FACSDiva™ v6.1.3 software (BD Bioscience). The results of the analysis were expressed as Mean Fluorescence Intensity (MFI) (see FIG. 2).

[3] = target: T1, human FcRn on HEK293 cells; assay: FACS on hFcRn-overexpressing HEK293 cells at pH 7.4, Alexa488 anti-human goat antibody; MFI relative to hIgG1
Experimental: as §3

[4] = target: T1, human FcRn on HEK293 cells; assay: FACS competition on hFcRn HEK293 cells at pH 6.0; remaining binding of 100 nM Alexa488-labeled hIgG1 (m14) with 500 nM competitor antibody, percent of the tube without competitor
Experimental: as §1, §2

[5] = target: T2, mouse FcRn on 3T3-L1 cells (mouse, UniProt Q61559 22-365; P01887 21-119); assay: FACS on mouse FcRn-expressing 3T3-L1 cells at pH 6.0 and pH 7.4, FITC anti-human IgG goat antibody; MFI relative to hIgG
T2 construct: whole, on cells; also called NIH3T3L1
T2 sequence (looked up): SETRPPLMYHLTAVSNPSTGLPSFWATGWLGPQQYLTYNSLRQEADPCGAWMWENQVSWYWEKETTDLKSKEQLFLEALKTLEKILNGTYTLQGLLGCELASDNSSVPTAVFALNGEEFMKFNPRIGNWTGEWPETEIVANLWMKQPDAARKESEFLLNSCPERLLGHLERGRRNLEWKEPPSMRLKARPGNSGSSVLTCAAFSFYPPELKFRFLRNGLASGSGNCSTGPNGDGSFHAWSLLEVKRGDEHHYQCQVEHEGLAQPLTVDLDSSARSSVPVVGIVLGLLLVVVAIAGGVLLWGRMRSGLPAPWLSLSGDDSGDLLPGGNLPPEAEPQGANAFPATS
T2 sequence (b2m, looked up): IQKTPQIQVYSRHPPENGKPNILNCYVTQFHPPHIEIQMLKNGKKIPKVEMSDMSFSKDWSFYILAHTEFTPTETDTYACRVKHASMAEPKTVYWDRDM
Experimental: 3T3-L1 cells stably expressing mouse FcRn were cultured in 10% FCS DMEM medium, and then detached from the culture plate by trypsin treatment. The cells were washed three times with cold binding buffer (PBS, pH 6.0 10 mM EDTA), and then diluted in binding buffer at a concentration of 10⁵ cells/ml. 100 μl of the cell dilution was dispensed into each 1.5-ml tube in such a manner that each tube contained 10⁴ cells, and 1 μl of HL161 antibody (1 mg/ml) was added to the dispensed cells. Next, the cells were incubated on ice. As control antibodies, 1 μl of each of rabbit antibody (Santacruz, sc-66893) and human IgG (Abcam, cat#. 409120), which bind to mouse FcRn, was used. The cells were recovered by centrifugation at 4° C. and 4000 rpm for 5 minutes, after which the cells were washed once with binding buffer and resuspended in 100 μl of binding buffer. As FITC-conjugated secondary antibody, 1 μl of anti-human IgG goat antibody (Invitrogen, Cat*. A11013) was added to the cells. In the case of the experiment using anti-mouse FcRn rabbit antibody, the anti-rabbit antibody was incubated with the cells on ice for 1 hour, and then the cells were recovered by centrifugation at 4° C. and 700 g for 5 minutes, washed once with binding buffer, resuspended in 400 ul of binding buffer and analyzed by FACS to examine the cross-reactivity of the HL161 antibodies with mouse FcRn (see FIG. 4). An experiment at a pH of 7.4 was performed using binding buffer at a pH of 7.4 in the same manner as the experiment using binding buffer at a pH of 6.0. The degree of the binding of each antibody to mouse FcRn was presented as relative MFI based on human IgG.

T1 sequence (P55899 24-365, chain 1 of 2): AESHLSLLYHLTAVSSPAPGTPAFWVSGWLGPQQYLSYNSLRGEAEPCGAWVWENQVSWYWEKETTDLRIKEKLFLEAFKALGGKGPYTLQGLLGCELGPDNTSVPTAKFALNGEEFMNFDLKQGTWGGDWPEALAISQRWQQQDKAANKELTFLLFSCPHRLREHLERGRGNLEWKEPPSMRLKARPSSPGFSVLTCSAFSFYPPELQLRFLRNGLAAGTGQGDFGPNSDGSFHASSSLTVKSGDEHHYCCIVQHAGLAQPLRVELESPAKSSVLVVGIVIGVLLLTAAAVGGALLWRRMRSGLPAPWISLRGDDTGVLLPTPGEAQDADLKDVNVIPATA
T1 sequence (P61769 21-119, chain 2 of 2): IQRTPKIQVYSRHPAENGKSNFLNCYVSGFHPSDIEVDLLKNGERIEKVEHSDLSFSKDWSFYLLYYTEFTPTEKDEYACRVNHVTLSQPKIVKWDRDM

B1: HL161-11H (antibody, V domains shown)
VH: QMQLVESGGGLVQPGRSLRLSCAASGFTFSSYAMHWVRQAPGKGLEWVAVISYDGSNKYYADSVKGRFTISRDNSKNTLYLQMNSLRSEDTAVYYCSRGSGGRDAFDVWGQGTMITVSS
VL: DIQMTQSPSTLSASVGDRVTITCRASQSISSRLAWYQQKPGKAPKLLIYKASSLETGVPSRFSGSGSGTEFTLTISSLQPDDFATYYCQQTNSFPLTFGGGTKVEIK
notes: Whole human IgG from pNATAB vectors
[1]
  Relative MFI(%) at 250nM: 75.4%
[2]
  Relative MFI (Fold): 3.5 fold
[3]
  Relative MFI (Fold): 10.6 fold
[4]
  Relative MFI(%) at 500nM: 60.4%
[5]
  binding result: no binding
